From patent US20200247894A1 (Regeneron, published 2020)
Residue numbers refer to the chain shown, from its start.

T1: Rat IL2Rγ extracellular domain expressed with a C-terminal myc-myc-hexahistidine tag (rat)
T1 construct: whole entry is the tagged construct; also called rIL-2Rg-MMH; rat IL-2Rg-MMH
T1 chain: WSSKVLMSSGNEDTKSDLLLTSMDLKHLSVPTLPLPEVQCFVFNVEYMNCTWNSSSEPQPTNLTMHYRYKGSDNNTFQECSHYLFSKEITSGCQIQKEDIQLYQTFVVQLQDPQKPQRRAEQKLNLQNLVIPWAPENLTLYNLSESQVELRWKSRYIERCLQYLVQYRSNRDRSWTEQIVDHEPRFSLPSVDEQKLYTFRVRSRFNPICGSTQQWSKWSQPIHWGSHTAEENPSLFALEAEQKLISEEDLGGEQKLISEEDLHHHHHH

T2: Mouse IL2Rγ extracellular domain expressed with a C-terminal myc-myc-hexahistidine tag (mouse)
T2 construct: whole entry is the tagged construct; also called mIL-2Rg-MMH
T2 chain: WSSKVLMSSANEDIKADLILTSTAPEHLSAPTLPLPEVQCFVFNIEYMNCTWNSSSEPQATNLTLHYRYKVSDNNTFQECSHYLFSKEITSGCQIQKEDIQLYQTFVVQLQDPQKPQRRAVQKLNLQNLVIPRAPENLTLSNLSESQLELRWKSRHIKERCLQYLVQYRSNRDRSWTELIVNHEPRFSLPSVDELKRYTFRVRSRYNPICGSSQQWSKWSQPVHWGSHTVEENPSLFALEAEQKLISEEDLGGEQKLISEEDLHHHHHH

T3: Macaca fascicularis IL2Rγ extracellular domain expressed with a C-terminal myc-myc-hexahistidine tag (Macaca fascicularis)
T3 construct: whole entry is the tagged construct; also called mfIL-2Rg-MMH
T3 chain: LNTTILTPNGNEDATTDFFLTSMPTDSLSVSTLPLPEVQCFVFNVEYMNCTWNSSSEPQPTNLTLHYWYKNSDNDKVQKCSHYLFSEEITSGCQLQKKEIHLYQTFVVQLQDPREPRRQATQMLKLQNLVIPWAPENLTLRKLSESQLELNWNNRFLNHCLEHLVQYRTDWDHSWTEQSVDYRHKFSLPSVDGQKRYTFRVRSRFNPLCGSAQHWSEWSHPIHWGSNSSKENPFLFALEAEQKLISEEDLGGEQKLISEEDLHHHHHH

B1: H4H12890P (antibody, human IgG4 S228P, kappa, V domains shown)
VH: EVQLVESGGGLVQPGGSLRLSCAASGFTFNNYAMHWVRQAPGKGLEYVSSISSSGGSTYYEDSVKGRFTISRDNSKNTLYLQMGSLRAEDMAVYYCARSFYGSGTYYDTFDMWGQGTMVTVSS
VL: DIQMTQSPSSLSASIGDRVTITCRASQSISRYLNWYQQKPGKAPKLLIYAASSLQSGVPSRFSASGSGTDFTLTISSLQPEDFATYYCQQSYSTPFTFGQGTKLEIKR
notes: fully human anti-IL2Rgamma mAb, human IgG4 Fc
B2: H4H12899P (antibody, human IgG4 S228P, kappa, V domains shown)
VH: QVQLVESGGDLVKPGGSLRLSCATSGFTFSDFYMTWIRQAPGKGLEWISYISNSGSIVKYADSVKGRFTISRDNAKNSLYLQMNSLRAEDTAIYYCARFYGDRWGQGTLVTVSS
VL: DIQLTQSPSFLSASVGDRVTITCWASQGISTFLAWYQQKPGKAPKLLIYAASTLQSGVPSRFSGSGSGTDFTLTISSLQPEDFATYHCQQLNNYPWTFGQGTKVEIKR
notes: as for B1
B3: H4H12900P (antibody, human IgG4 S228P, kappa, V domains shown)
VH: QVQLVESGGGLVKPGGSLRLSCEASGFTFNDFYMTWIRQAPGKGLEWIAYISKSGDKMRYADSVKGRFSTSRDNAKNSLSLQMNSLRAEDTAVYYCARFYGDIWGQGTLVTVSS
VL: B2 VL with G28D, T31S, A34V, K45N, T53A, D70E, T85S, H87Y, Q89E
notes: as for B1

Tests used:
[1] = biological target: T1, Rat IL2Rγ extracellular domain …; assay: SPR Biacore 4000, anti-hFc-captured mAb, 25 C
Procedure: (§1) Equilibrium dissociation constants (KD values) for IL-2Rγ binding to purified anti-IL2Rγ monoclonal antibodies were determined using a Biacore 4000 instrument equipped with a real-time surface plasmon resonance biosensor. All binding studies were performed in 10 mM HEPES, 150 mM NaCl, 3 mM EDTA, and 0.05% v/v Surfactant Tween-20, pH 7.4 (HBS-ET) running buffer at 25° C. and 37° C. The Biacore sensor surface was first derivatized by amine coupling with a monoclonal mouse anti-human Fc antibody (GE, # BR-1008-39) to capture anti-IL2Rγ monoclonal antibodies.
(§2) The dissociation of monoclonal antibody bound IL2Rγ reagents were monitored for 8-10 minutes in HBS-ET running buffer. Kinetic association (kₐ) and dissociation (kd) rate constants were determined by fitting the real-time sensorgrams to a 1:1 binding model using Scrubber 2.0c curve fitting software. Binding dissociation equilibrium constants (KD) and dissociative half-lives (t_{1/2}) were calculated from the kinetic rate constants as: […]

[2] = biological target: T2, Mouse IL2Rγ extracellular domain …; assay: SPR Biacore 4000, anti-hFc-captured mAb, 25 C
Procedure: as §1, §2

[3] = biological target: T1, Rat IL2Rγ extracellular domain …; assay: SPR Biacore 4000, anti-hFc-captured mAb, 37 C
Procedure: as §1, §2

[4] = biological target: T3, Macaca fascicularis IL2Rγ extracellular …; assay: SPR Biacore 4000, anti-hFc-captured mAb, 37 C
Procedure: as §1, §2

[5] = biological target: T2, Mouse IL2Rγ extracellular domain …; assay: SPR Biacore 4000, anti-hFc-captured mAb, 37 C
Procedure: as §1, §2

Row | Binder | 100 nM Ag Bound [1] | 100 nM Ag Bound [2] | 100 nM Ag Bound [3] | 100 nM Ag Bound [4] | Kd [4] | koff [4] | kon [4] | t1/2 [4] | 100 nM Ag Bound [5] | Kd [1] | koff [1] | kon [1] | t1/2 [1] | Kd [2] | koff [2] | kon [2] | t1/2 [2] | Kd [3] | koff [3] | kon [3] | further results
1 | B1 | 0 RU | 1 RU | 0 RU | 20 RU | 14 nM | 0.00131 s⁻¹ | 93600 M⁻¹ s⁻¹ | 9 min | 1 RU |  |  |  |  |  |  |  |  |  |  |  | binding result [1]: no binding (tested: 100 nM); binding result [2]: no binding (tested: 100 nM)
2 | B2 | 39 RU | 51 RU | 16 RU | 31 RU | 6.71 nM | 0.00216 s⁻¹ | 322000 M⁻¹ s⁻¹ | 5 min | 19 RU | 21.7 nM | 0.00153 s⁻¹ | 70400 M⁻¹ s⁻¹ | 8 min | 18.4 nM | 0.00167 s⁻¹ | 90600 M⁻¹ s⁻¹ | 7 min | 51.6 nM | 0.00753 s⁻¹ | 146000 M⁻¹ s⁻¹ | t1/2 [3]: 1.5 min; Kd [5]: 55.9 nM; koff [5]: 0.0108 s⁻¹; kon [5]: 193000 M⁻¹ s⁻¹; t1/2 [5]: 1.1 min
3 | B3 | 57 RU | 76 RU | 27 RU | 38 RU | 3.18 nM | 0.00154 s⁻¹ | 483000 M⁻¹ s⁻¹ | 8 min | 32 RU | 6.02 nM | 0.000619 s⁻¹ | 103000 M⁻¹ s⁻¹ | 19 min | 3.76 nM | 0.000467 s⁻¹ | 124000 M⁻¹ s⁻¹ | 25 min | 8.7 nM | 0.00363 s⁻¹ | 417000 M⁻¹ s⁻¹ | t1/2 [3]: 3.2 min; Kd [5]: 6.11 nM; koff [5]: 0.00317 s⁻¹; kon [5]: 519000 M⁻¹ s⁻¹; t1/2 [5]: 4 min
